The target of the experiment is soluble recombinant human IL-6 receptor (human) (UniProt P08887). Briefly: Biacore T100, biotinylated SR344 immobilised via streptavidin as model of membrane-type IL-6 receptor, dissociation at pH 7.4 and pH 5.8, 37 degrees C. Background: Surface plasmon resonance follows binding to a sensor surface in real time, without labels.

Numbering of substitutions follows the chain as printed.

Sequence of soluble recombinant human IL-6 receptor (human) (P08887 20-344, form in doubt): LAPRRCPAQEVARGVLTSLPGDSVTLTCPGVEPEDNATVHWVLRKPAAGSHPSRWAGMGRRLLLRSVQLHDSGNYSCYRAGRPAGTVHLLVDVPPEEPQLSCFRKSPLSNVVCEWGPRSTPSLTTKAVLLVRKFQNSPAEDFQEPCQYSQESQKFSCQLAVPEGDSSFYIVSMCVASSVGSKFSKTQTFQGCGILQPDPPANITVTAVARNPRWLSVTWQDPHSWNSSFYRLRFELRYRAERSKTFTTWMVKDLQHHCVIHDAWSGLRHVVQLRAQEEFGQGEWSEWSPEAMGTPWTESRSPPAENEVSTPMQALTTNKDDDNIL

B1: Fv3-M73 (antibody, V domains shown)
VH: QVQLQESGPGLVKPSETLSLTCAVSGHSISHDHAWSWVRQPPGEGLEWIGFISYSGITNYNPTLQGRVTISRDNSKNTLYLQMNSLRAEDTAVYYCARSLARTTAMDYWGEGTLVTVSS
VL: DIQMTQSPSSLSASVGDSVTITCQASRDISSHLNWYQQKPGKAPELLIYYGSHLLSGVPSRFSGSGSGTDFTFTISSLEAEDAATYYCGQGNRLPYTFGQGTKVEIER
B1: the fold improvement of the pH dependency of the dissociation rate (pH 5.8 against pH 7.4) over TOCILIZUMAB worked out at 11 times.

B2: H3pI/L73 (antibody, human IgG1, kappa, V domains shown)
VH: QVQLQESGPGLVKPSETLSLTCAVSGHSISHDHAHSWVRQPPGEGLEWIGYISYSGITNYNPSLKGRVTISRDTSKNQFSLKLSSVTAADTAAYYCARSLARTTAMDYWGEGTLVTVSS
VL: B1 VL with R27Q, D28H, L55H
For B2, the fold increase of the pH dependence of the dissociation rate (pH 5.8 against pH 7.4) over TOCILIZUMAB was found to be 2.6 times.

B3: Fv4-M73 (antibody, V domains shown)
VH: B1 VH with T63S
VL: B1 VL with R27T
For B3, the fold improvement of the pH dependency of the dissociation rate (pH 5.8 against pH 7.4) over TOCILIZUMAB was 10 times.

(Values after patent publication WO2010106812A1.)
